Assay results published in patent US20260115256A1 (HANGZHOU SCIWIND BIOSCIENCES, published 2026).
*1 amine or outer side, *2 acyl side, *3 side chain or, on linkers, in order; H or OH if unused. Bridges are numbered along the chain shown (N, C = ends). Primed or numbered codes have the meaning given here. Where no end group is shown, it is not given here. Side-chain parts run from the residue outwards. [ ]: non-standard residue; d: D form. The star is where a group is joined. C20 diacid = O=C(O)CCCCCCCCCCCCCCCCCCC(=O)*; γGlu = O=C(O)[C@H](CCC(=O)[*:2])N[*:1]; βAsp = O=C(O)[C@H](CC(=O)[*:2])N[*:1]; Hyp = O=C(O)[C@@H]1C[C@@H](O)CN1; Cit = NC(=O)NCCC[C@H](N)C(=O)O; Orn = NCCC[C@H](N)C(=O)O; Dab = NCC[C@H](N)C(=O)O; Inp′ = not defined here; Trx′ = not defined here; AOC = not defined here; Dap = NC[C@H](N)C(=O)O; PEG = not defined here; AEEA = NCCOCCOCC(=O)O; Sar = CNCC(=O)O

T1: human amylin receptor (AMY3) on CHO-K1/Ga15/AMY3 cells (human, UniProt P30988 25-474; O60896 24-148)
T1 sequence (looked up) 1: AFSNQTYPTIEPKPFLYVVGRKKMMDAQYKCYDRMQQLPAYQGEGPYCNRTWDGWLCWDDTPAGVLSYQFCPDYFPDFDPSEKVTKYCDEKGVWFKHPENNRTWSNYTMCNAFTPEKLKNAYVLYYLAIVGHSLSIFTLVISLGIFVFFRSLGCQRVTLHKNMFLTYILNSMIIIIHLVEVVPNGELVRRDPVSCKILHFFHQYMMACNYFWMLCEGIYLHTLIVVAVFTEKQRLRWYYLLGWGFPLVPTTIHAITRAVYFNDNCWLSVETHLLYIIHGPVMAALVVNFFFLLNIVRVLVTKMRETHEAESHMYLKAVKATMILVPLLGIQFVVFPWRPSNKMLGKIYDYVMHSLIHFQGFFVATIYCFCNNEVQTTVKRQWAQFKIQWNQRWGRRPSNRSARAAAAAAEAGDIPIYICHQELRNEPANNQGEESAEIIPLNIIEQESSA
T1 sequence (looked up) 2: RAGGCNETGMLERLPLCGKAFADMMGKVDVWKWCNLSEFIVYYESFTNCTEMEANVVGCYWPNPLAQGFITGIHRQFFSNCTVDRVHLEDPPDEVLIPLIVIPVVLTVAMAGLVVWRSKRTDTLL

B1: PD187 (peptide)
peptide: {C20 diacid-AEEA-AEEA}-KCNTATCATQRLADFLRHSSNNLKPILPPTNVGSNTX-NH2
modifications: disulfide 2-7 (inferred); not fully specified (residue 37); printed as KCNTATCATQRLADFLRHSSNNLKPILPPTNVGSNT-trans-Hyp-NH2
B2: PD189 (peptide)
peptide: {C20 diacid-Trx′-AEEA-AEEA}-KCNTATCATQRLADFLRHSSNNLKPILPPTNVGSNTP-NH2
modifications: disulfide 2-7 (inferred); reading uncertain; also: printed as N-terminal: 2*AEEA + Trx + C20 diacid; C-terminal NH2
B3: PD190 (peptide)
peptide: {C20 diacid-AEEA-AEEA-Trx′}-KCNTATCATQRLADFLRHSSNNLKPILPPTNVGSNTP-NH2
modifications: disulfide 2-7 (inferred); reading uncertain; also: printed as N-terminal: Trx + 2*AEEA + C20 diacid; C-terminal NH2

biological target: T1, human amylin receptor (AMY3) on …; test: cell-based or functional assay

**Q.** RCNTATCATQRLAEFLRHSSK([AEEA-AEEA-γGlu-C20 diacid])NLGPILPPTNVGSNTP-NH2 (disulfide 2-7 (inferred)) [PD001] was tested. Which “EC50, CRE-luciferase assay” value did it give?
**A.** 0.042 nM

**Q.** Which “EC50, CRE-luciferase assay” value does the source give for {C20 diacid-AEEA-AEEA-γGlu}-KCNTATCATQRLADFLRHSSNNLKPILPPTNVGSNT[Hyp]-NH2 (disulfide 2-7 (inferred)) [PD176] here?
**A.** 0.029 nM

**Q.** Which “EC50, CRE-luciferase assay” value does the source give for {C20 diacid-γGlu}-KCNTATCATQRLADFLRHSSNNL[Dap]PILPPTNVGSNTP-NH2 (disulfide 2-7 (inferred)) [PD168] here?
**A.** 0.041 nM

**Q.** With {C20 diacid-γGlu}-KCNTATCATQRLADFLRHSSNNL[Dab]PILPPTNVGSNTP-NH2 (disulfide 2-7 (inferred)) [PD169] as the binder, how does the “EC50, CRE-luciferase assay” value read?
**A.** 0.039 nM

**Q.** Which “EC50, CRE-luciferase assay” value does the source give for {C20 diacid-PEG-PEG-PEG-PEG-PEG-PEG-PEG-PEG-γGlu}-KCNTATCATQRLADFLRHSSNNLKPILPPTNVGSNT[Hyp]-NH2 (disulfide 2-7 (inferred); reading uncertain) [PD186] here?
**A.** 0.052 nM

**Q.** {C20 diacid-γGlu}-KCNTATCATQRLADFLRHSSNNLHPILPPTNVGSNTP-NH2 (disulfide 2-7 (inferred)) [PD162] was tested. Which “EC50, CRE-luciferase assay” value did it give?
**A.** 0.035 nM

**Q.** Which “EC50, CRE-luciferase assay” value does the source give for {C20 diacid-γGlu}-KCNTATCATQRLADFLRHSSNNLRPILPPTNVGSNTP-NH2 (disulfide 2-7 (inferred)) [PD161] here?
**A.** 0.026 nM

**Q.** How did the “EC50, CRE-luciferase assay” value turn out when {C20 diacid-γGlu}-KCNTATCATQRLADFLRHSSNNL[Trx′]PILPPTNVGSNTP-NH2 (disulfide 2-7 (inferred); reading uncertain) [PD173] was run?
**A.** 0.064 nM

**Q.** {C20 diacid-γGlu}-KCNTATCATQRLADFLRHSSNNL[AOC]PILPPTNVGSNTP-NH2 (disulfide 2-7 (inferred); reading uncertain) [PD174] was tested. Which “EC50, CRE-luciferase assay” value did it give?
**A.** 0.046 nM

**Q.** {C20 diacid}-D[AEEA][AEEA]KCNTATCATQRLADFLRHSSNNLKPILPPTNVGSNT[Hyp]-NH2 (disulfide 5-10 (inferred)) [PD181] was tested. Which “EC50, CRE-luciferase assay” value did it give?
**A.** 0.022 nM

**Q.** How did the “EC50, CRE-luciferase assay” value turn out when {C20 diacid-AEEA-AEEA-Trx′}-KCNTATCATQRLADFLRHSSNNLKPILPPTNVGSNT[Hyp]-NH2 (disulfide 2-7 (inferred); reading uncertain) [PD178] was run?
**A.** 0.017 nM

**Q.** {C20 diacid-AEEA-AEEA-Inp′}-KCNTATCATQRLADFLRHSSNNLKPILPPTNVGSNT[Hyp]-NH2 (disulfide 2-7 (inferred)) [PD180] was tested. Which “EC50, CRE-luciferase assay” value did it give?
**A.** 0.016 nM

**Q.** For {C20 diacid-AEEA-AEEA}-DKCNTATCATQRLADFLRHSSNNLKPILPPTNVGSNT[Hyp]-NH2 (disulfide 3-8 (inferred)) [PD182], which “EC50, CRE-luciferase assay” value is on record?
**A.** 0.034 nM

**Q.** How did the “EC50, CRE-luciferase assay” value turn out when {C20 diacid-AEEA-AEEA-γGlu}-KCNTATCATQRLADFLRHSSNNLKPILPPTNVGSNTP-NH2 (disulfide 2-7 (inferred)) [PD188] was run?
**A.** 0.025 nM

**Q.** Which “EC50, CRE-luciferase assay” value does the source give for {C20 diacid-Inp′-AEEA-AEEA}-KCNTATCATQRLADFLRHSSNNLKPILPPTNVGSNTP-NH2 (disulfide 2-7 (inferred)) [PD191] here?
**A.** 0.061 nM

**Q.** Which “EC50, CRE-luciferase assay” value does the source give for {C20 diacid-γGlu}-KCNTATCATQRLADFLRHSSNNLKPILPPTNVGSNTP-NH2 (disulfide 2-7 (inferred)) [PD160] here?
**A.** 0.035 nM

**Q.** {C20 diacid-γGlu}-KCNTATCATQRLADFLRHSSNNLDPILPPTNVGSNTP-NH2 (disulfide 2-7 (inferred)) [PD164] was tested. Which “EC50, CRE-luciferase assay” value did it give?
**A.** 0.111 nM

**Q.** With {C20 diacid-Trx′-AEEA-AEEA}-KCNTATCATQRLADFLRHSSNNLKPILPPTNVGSNT[Hyp]-NH2 (disulfide 2-7 (inferred); reading uncertain) [PD177] as the binder, how does the “EC50, CRE-luciferase assay” value read?
**A.** 0.024 nM

**Q.** For {C20 diacid-Inp′-AEEA-AEEA}-KCNTATCATQRLADFLRHSSNNLKPILPPTNVGSNT[Hyp]-NH2 (disulfide 2-7 (inferred)) [PD179], which “EC50, CRE-luciferase assay” value is on record?
**A.** 0.017 nM

**Q.** {C20 diacid-γGlu}-KCNTATCATQRLADFLRHSSNNL[Cit]PILPPTNVGSNTP-NH2 (disulfide 2-7 (inferred)) [PD171] was tested. Which “EC50, CRE-luciferase assay” value did it give?
**A.** 0.053 nM

**Q.** With {C20 diacid-γGlu}-KCNTATCATQRLADFLRHSSNNL[aK]PILPPTNVGSNTP-NH2 (disulfide 2-7 (inferred)) [PD167] as the binder, how does the “EC50, CRE-luciferase assay” value read?
**A.** 0.05 nM

**Q.** For {C20 diacid-γGlu}-KCNTATCATQRLADFLRHSSNNL[Orn]PILPPTNVGSNTP-NH2 (disulfide 2-7 (inferred)) [PD170], which “EC50, CRE-luciferase assay” value is on record?
**A.** 0.041 nM

**Q.** With {C20 diacid-γGlu}-KCNTATCATQRLADFLRHSSNNLSPILPPTNVGSNTP-NH2 (disulfide 2-7 (inferred)) [PD166] as the binder, how does the “EC50, CRE-luciferase assay” value read?
**A.** 0.054 nM

**Q.** How did the “EC50, CRE-luciferase assay” value turn out when {C20 diacid-γGlu}-KCNTATCATQRLADFLRHSSNNLPPILPPTNVGSNTP-NH2 (disulfide 2-7 (inferred)) [PD163] was run?
**A.** 0.084 nM

**Q.** RCNTATCATQRLAEFLRHSSNNLK([γGlu-C20 diacid])PILPPTNVGSGT[Hyp]-NH2 (disulfide 2-7 (inferred)) [PD041] was tested. Which “EC50, CRE-luciferase assay” value did it give?
**A.** 0.259 nM

**Q.** With B1 as the binder, how does the “EC50, CRE-luciferase assay” value read?
**A.** 0.016 nM

**Q.** With {C20 diacid-γGlu}-KCNTATCATQRLADFLRHSSNNL[Sar]PILPPTNVGSNTP-NH2 (disulfide 2-7 (inferred)) [PD172] as the binder, how does the “EC50, CRE-luciferase assay” value read?
**A.** 0.075 nM

**Q.** How did the “EC50, CRE-luciferase assay” value turn out when {C20 diacid-βAsp-AEEA-AEEA}-KCNTATCATQRLADFLRHSSNNLKPILPPTNVGSNT[Hyp]-NH2 (disulfide 2-7 (inferred)) [PD183] was run?
**A.** 0.04 nM

**Q.** For {C20 diacid-AEEA-AEEA-βAsp}-KCNTATCATQRLADFLRHSSNNLKPILPPTNVGSNT[Hyp]-NH2 (disulfide 2-7 (inferred)) [PD184], which “EC50, CRE-luciferase assay” value is on record?
**A.** 0.037 nM

**Q.** Which “EC50, CRE-luciferase assay” value does the source give for B2 here?
**A.** 0.029 nM

**Q.** How did the “EC50, CRE-luciferase assay” value turn out when {C20 diacid-γGlu}-KCNTATCATQRLADFLRHSSNNLNPILPPTNVGSNTP-NH2 (disulfide 2-7 (inferred)) [PD165] was run?
**A.** 0.05 nM

**Q.** With B3 as the binder, how does the “EC50, CRE-luciferase assay” value read?
**A.** 0.017 nM

**Q.** How did the “EC50, CRE-luciferase assay” value turn out when RCNTATCATQRLADFLRHSSNNLK([γGlu-C20 diacid])PILPPTNVGSNTP-NH2 (disulfide 2-7 (inferred)) [PD042] was run?
**A.** 0.111 nM
